# Assay results reported in PMC11406360, “The enzymatic oxygen sensor cysteamine dioxygenase binds its protein substrates through their N-termini” (The Journal of Biological Chemistry, 2024).
# B1: native RGS5 peptide (first 14 amino acids of the methionine excised N terminus of RGS5) [human] / 2-aminoethanethiol (cysteamine) dioxygenase (ADO), biotinylated, for SPR [modified: biotin (N terminally biotinylated; 0.2 mM biotin added at … (parent complex)
# chain 1: CKGLAALPHSCLER
# chain 2: MPRDNMASLIQRIARQACLTFRGSGGGRGASDRDAASGPEAPMQPGFPENLSKLKSLLTQLRAEDLNIAPRKATLQPLPPNLPPVTYMHIYETDGFSLGVFLLKSGTSIPLHDHPGMHGMLKVLYGTVRISCMDKLDAGGGQRPRALPPEQQFEPPLQPREREAVRPGVLRSRAEYTEASGPCILTPHRDNLHQIDAVEGPAAFLDILAPPYDPDDGRDCHYYRVLEPVRPKEASSSACDLPREVWLLETPQADDFWCEGEPYPGPKVFP
# Variants of: B1
# Assay: SPR; parent: 290 nM
row,Kd,Variant
1,260 nM,chain 1 CKGLAALPHSCLAR
2,210 nM,chain 1 CKGLAALPHSCLEA
3,250 nM,chain 1 CKGLAALAHSCLER
4,350 nM,chain 1 CKGLAALPHACLER
5,300 nM,chain 1 CKGLAALPHSALER
6,220 nM,chain 1 CKGAAALPHSCLER
7,240 nM,chain 1 CKGLAALPASCLER
8,310 nM,chain 1 CKGLAAAPHSCLER
9,260 nM,chain 1 CKGLAALPHSCAER
